Reference: the supplement of paper PMC11502859

Tested on: HEK293T
Assay: median enrichment of reporter reads in eGFP-reduced (low/intermediate) vs eGFP-high sorted cells (eGFP-extension fusion abundance) (ratio); higher = stronger loss of eGFP-fusion protein abundance (more destabilising extension)
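Also: lentiviral eGFP-IRES-mCherry reporter pool sorted by FACS 96 h post-transduction, gated on mCherry-high cells, Illumina read counts normalized per million, median across four biological replicates.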

Point of comparison: SCPSFGNILF [RNASET2], median enrichment 0.362. Against it:
- RSLRAGPSAAGSCLNTSLDMARTHRDTGQDQPCLWRQDTTIWPMAVTSCRVQSQTGNHHLRQDLPASFTFLISRALPPILCLG [SLC22A13] — higher, 6.14
- RSNFSFTVLSCLHRKSQYNFHC [SEC23IP] — higher, 2.62
- RSNLYVLPKKPKTAFD [C2orf15] — higher, 1.27
- RSPPHLRPKGRPPPAFLTPALLPQRMWGGGGGPCGPGAQLPGTPVPGQAHLEEESLPPPKYWAALSLPRDHPSLPAMCTIMTN [GPR108] — higher, 3.35
- RSQLCSGQACSLRTLTTLDLELGTCGHSSSPGCIP [CIITA] — higher, 42.6
- RSRVFQVPGPWL [MYL4] — higher, 1.67
- RSSKPTKHQKTHSQTSEHKLHG [PLCB4] — lower, 0.191
- RSSPTKGPPETPGTISVSSHQTLALFLLLFGDLHCQNYQFQVNFVGEFPPPPSSGSPRSNVPPATFPLWPPAELICLSHRSWC [S100A7A] — higher, 7.95
- RSSTRDWKDHKLKWRKDPQDT [FCGR3B] — higher, 2.73
- RSWPPLIYSTSLAPHLH [TNFRSF6B] — higher, 8.26
- RTCGRPF [CMTM1] — higher, 6.49
- RTDCRSWEPRHAQASAEGAAGGSARLDPWHLIKKFSLMSMVVGQPSSLSQQAHAASVTSSPAVYTGHCGPEWLGPCRSYTTGC [ZFPM1] — higher, 4.58
- RTF [KBTBD3] — higher, 0.378
- RTFATVYFKNKFKLFYHFI [ABCB4] — higher, 7.31
- RTILELTRFVCL [KRTAP20-1] — higher, 7.89
- RTPNTIFAIQPQAMGTAFLPRGPGRPQRLLQARTLVHYTPCLGAEILQQKDAIFFVSFFSIFFSKESIFQYVECVSNAMKLKY [NFYC] — higher, 15.8
- RTQDSE [CD3G] — higher, 0.492
- RTQTPQSSRLALLRLRGPQKSPPK [TSGA13] — higher, 9.36
- RTRIPNYISTDAFHFNSS [SAMSN1] — higher, 2.43
- RTSARPARPFPTST [ISLR2] — higher, 0.582
- RTSRPTTLRKIEW [HCAR1] — higher, 1.94
- RVAVWEPLCLAPGYPGPGNLRAGERWGGRHAEVLLVTGLPSLTCTYLHPELSSSPSSCLLLPTCLPSAGAPRPTHSYCTVHFI [SLC36A1] — higher, 3.4
- RVAYFMQS [PDE5A] — higher, 7.9
- RVEPTSLPSQQARN [TMEM143] — higher, 0.919
- RVFGNRISCVAHRPVEKLEPKLSYLEMTFGLDSW [C12orf76] — higher, 4.28
- RVFHP [ZSWIM8] — higher, 0.463
- RVFLGIVFCSCFSVLGMGPGPDTPSPPLWPWPLKLQTQVPILFSPSNAPPNLQPPCLQLPGPGRALVPSLGLIFSLNSTDQLP [JUP] — higher, 7.92
- RVSSPTRSLARPLALQLLFGGGIPHSFLGTHSHAHCRSINSNPHFRPKIMRPHLVSTFPRPCSKPNPFLPSGSQNLLSPTATT [RNF39] — higher, 6.99
- RVT [OR2M3] — higher, 0.571
- RVTFQVVPWAPGSGLWPTFSTFRPICTGCWQGGGRELTGTEGLGTQPFSTCAYRLDLSLLQKPALLCWLAGPVAAG [EIF6] — higher, 6.39
- RVTKKTMHHKIAQSSAEQFSGDPWTQ [CXCL6] — lower, 0.284
- RVWGPCQPAAPKPAPLPKQPRPLPLNPGPGRPGRPPVTAAAPALCRAALTCLPSQPLTSRLSLGQREPFGGAACLLWFWEG [FLNA] — higher, 3.47
- RVYTRTMWYVARPGPGVRLGQPQLSLPLLLIQGVTRHLSLCYFWPQQEPVLGYFCPCSSQPNSGLAHPSPPPKAAEAVGGTGP [KCNJ11] — higher, 4.66
- RWCWGLGRGGELGCQNSMDMFLWMEGRAFVTFCTYSFCGCFDKGMARELVSIISFILFWL [BCO1] — higher, 16
- RWTSLFPGPRTLQEMETVQRAVWSHNLNRFSGAPSLLPSLQ [RPRD1A] — higher, 6.53
- RYC [NCK1] — higher, 0.896
- RYCSTQPNL [BRPF1] — higher, 3.69
- RYGWYSLHI [WASHC4] — higher, 8.03
- RYPGASPVTVTAAPPPRLLSASNHLDSPEESPMETALIRCPAAARGPRSPRVPLKECLGHIRPARSRERAPNARPG [CUX1] — higher, 4.54
- RYQKKK [STARD6] — higher, 0.951
- SAASWPWGRGLGCGAVWVLSSSPLPRPSLSNPAWDLGFNAEAMSLSGPASGYSHPGTEKAADGDCLPQPQQHLGLQLLESYHP [LGALS9] — higher, 7.86
- SAAVTTFTCSSYTQTLQD [PIFO] — higher, 1.55
- SACPQHLLPPSLGVWIPMELGSAGHNLFLASDLPAIIKWLQIGT [LRRC59] — higher, 7.87
- SAEGKSGKMSFERCIPKASSGASGKSGPTSARPSSPSPAPPLVSSFIQQNLAGK [NKG7] — higher, 0.737
- SAGAFVAISL [MSI2] — higher, 3.7
- SAGPWDTAFSFARLSACRPGGEPGPANESLVYLGCNSLKVQSFGLQSCPGPGSPGHCCSPRPWALVFLQHHTCCPFSISVCVK [MYO1F] — higher, 7.3
- SAGRGSAPRKCLLCPGAERRCLLGAGLPPCGSCAPWPGPCPAAPVSPSLSPVLVLACSSSQPRESFPTCPRLLSLPRPVVPSW [ARHGAP39] — higher, 4.7
- SAGSSPLVHSSQGQKGVDMINTESPTSTPTEFPARQCQKHFSREPKPNQEEAREEAGREEGAFPAPRFLKCRSDTCVGVHVLY [SWI5] — higher, 1.02
- SAHAARRQGGLRRGPHSTRVCFCAAVQTVATALTERDSRAFILKEMFFPRGLLKE [GATA6] — higher, 4.62
- SAHQRAPSPRIAAPTQPGAPDPPGGLRGNRRREGKGPPSPSRPQGAATDWRAAEGGRARAPRGRTIRAPAPRPVPPQARA [TLX3] — higher, 3.75
- SAHSPLSQDMDLELRMGLS [IMP4] — higher, 0.513
- SAIHL [XKR9] — higher, 0.425
- SALELLNLCPWGFHPNQCQGPPLPPSK [ACY1] — higher, 2
- SALGWSQGGTTQAPWAPRERGGIRAGQPPGCRCQEQSQAQVAPAACPVPFPKAPLHIEGRKREFRQLHSPFTPNPVFYSPEKR [STARD8] — higher, 3.27
- SALTHAHAPLTLKRIHNSLEKHPHVCCRTHSSQLRPIPVTTASPPTPVTTASPPTPVTTASPPTALSPRPMSACPRAQDFLTG [SSH3] — higher, 2.09
- SAMVSRAPHTRVYTRTMWYVARPGPGVRLGQPQLSLPLLLIQGVTRHLSLCYFWPQQEPVLGYFCPCSSQPNSGLAHPSPPPK [KCNJ11] — higher, 5.63
- SAPCSTPSPPHPPWAGS [MOSPD3] — higher, 4.09
- SAPDSASALLTFYPVSLPSPLKAGAPRELPWSSLPGRV [PKMYT1] — higher, 8.2
- SAPPAACPACPACLSRHTGFRTC [DIS3L2] — higher, 16.6
- SAPPGTPSTPSIFSTKALVVSTLLPNGHTPKWPVGRESWSTCSGMVWWKRG [CLIC1] — higher, 11
- SAPYWPAGPPPPAAGQLPNGPFQGLTLHPFSVDFLARAPSGGITDLMTTLALLPCRVQVLSPHFHLPAPRGPFPFMGLPPSDA [PCDH1] — higher, 3.42
- SAQQSHHPASQAGGRSWGRGLSPVRLLLVKGQGPGQASSSVQVILASVVGGRESKTCSAVSSSGD [PIK3C2B] — higher, 2.95
- SARSAVSSQWILVNWWRLADTLEKPKPESLLFSLFSCLCSVSLNTTFSAMVCG [MRFAP1] — higher, 5.22
- SASAEVTEKPYDDVPDFSVGRSRPVA [TCF25] — higher, 0.734
- SATCPKA [NOL4L] — lower, 0.348
- SAVKFF [INTS8] — higher, 0.917
- SCIAGLSSAASTECQAPHSAHPWALLRGPKTQEEERSACPLPPPLQYSLCAVV [SYCN] — higher, 10.8
- SCLY [GLRX2] — higher, 1.01
- SCNPTRAHFIIAETSVCIPVITHCNRATN [IDO1] — higher, 4.95
- SCPPRCSQGNLAPRS [ZIC4] — higher, 0.982
- SCRDSPAPKYK [MT1G] — lower, 0.15
- SCRVFSSFFLLQEFVVT [MMP16] — higher, 3.12
